Experimental data: the DeepSol protein solubility set

Experiment: soluble on expression in E. coli; label from the status in PepcDB or PDB records

Sequence	soluble on expression in E. coli
MEPYIKALITDSYEQNKNFFRCRFMKNRRGDECNFVGTFSDTLTHFSIHTKVYLFECEGCTKQVVDFMDLVEHRSPSTGAICRGTVENMRQLRLERMKTIDAHRCRNVFIVGATRSEFEDYLRYKNTHGKQQSFGTPLYNDNEEEQTRHQPQQQRSSTPLAPTTPTPPPPTQAPTNHRELLLDFPLPVDFSRPPPVIPPEYFFNAPSVSQQHHQRSQYQHYAPQPQGNRTPGYVARPITPHGNPKPQNYQIGGGWNPYANPPSAKDAPATVRDNRSPSRPRGDFRRDRSQSRGAETHCQQSYQPPADPLQDRSRNGRSPPMGTHSHYGQNAKPAQNGNTSHYELRSRSRGRATVPMNANFRAGHQTGSSSRLESRSRATASVGARAPSRAPAPSSTSRETRSTRRSPSKGPSAPAYTLPFGGSTPNHEPMDLELEDPVPPPRPDRPRASTSLNTSVSQIKRNEVQTGVYNIRPQRVQDTVQKARTAVGYAGTRNRSPLREADAEEIAATEALKNRFAVKSRGTAKAKANSNRGAALLESIEPTNRKIETAEEREKKQNDLYLEKMRKIREKQRLEQEKIDDVVVDSGNLPTIAPNAAGTPPPQSVAAMLEPKEESEEDEPSTSASVPFQRRMNSPQTHATSYARRSDGKRHPSKSRSSRDDRANRRDRDRDSDGRCGDDRRRDHRSHPYERH	not soluble
MGSDKIHHHHHHMDQDDASPISSGVEGLDYVLRGGYAKYRSHLVEGRPGSGKTTLGLQFLIKGAAAGEKCLYITLSESRRELQSVAVRHGFSLDGIEILELVPPELSLDPSQLQTLVHSSDLELGETVQAALAEIERMKPDRVVFDSLSEIRLLSQGSLRYRRQVLALKSFFLLNNATVLLLDDLTAEHDDLNLHSISHGVIRMEQLSPIYGGERRRLRIIKMRGVQIRGGFHDFVIRPGGVMVFPRLVASEHEMAEHGTPATGNGSVDTLVGGGLDRGTSTLLMGPSGVGKSTIACSYCHSALKRGEHVLVLLFDETKRIFLARASGLGMDLGPFADNGNLLLEQIDPAELSPGELSSRIQSAVERSSARIVVIDSLTGYLNAMSEEQHLVLQMHEILTYLNQKGVVTILLLANHGLIGQMSAPVDMTYLCDSVMLLRFFESGGRLRRAISVVKKRVGPHEDTIREFKISATGLAVGEPLEEFRGILTGVPTYEGKQGNLLQDKAS	not soluble
GMSPTVLPATQADFPKIVDVLVEAFANDPTFLRWIPQPDPGSAKLRALFELQIEKQYAVAGNIDVARDSEGEIVGVALWDRPDGNHSAKDQAAMLPRLVSIFGIKAAQVAWTDLSSARFHPKFPHWYLYTVATSSSARGTGVGSALLNHGIARAGDEAIYLEATSTRAAQLYNRLGFVPLGYIPSDDDGTPELAMWKPPAMPTV	soluble
SMVSPREKQQTNSKGSSNFCVKNIKQAEFGRREIEIAEQDMSALISLRKRAQGEKPLAGAKIVGCTHITAQTAVLIETLCALGAQCRWSACNIYSTQNEVAAALAEAGVAVFAWKGESEDDFWWCIDRCVNMDGWQANMILDDGGDLTHWVYKKYPNVFKKIRGIVEESVTGVHRLYQLSKAGKLCVPAMNVNDSVTKQKFDNLYCCRESILDGLKRTTDVMFGGKQVVVCGYGEVGKGCCAALKALGAIVYITEIDPICALQACMDGFRVVKLNEVIRQVDVVITCTGNKNVVTREHLDRMKNSCIVCNMGHSNTEIDVTSLRTPELTWERVRSQVDHVIWPDGKRVVLLAEGRLLNLSCSTVPTFVLSITATTQALALIELYNAPEGRYKQDVYLLPKKMDEYVASLHLPSFDAHLTELADDQAKYLGLNKNGPFKPNYYRY	soluble
AIAGSRGVLSIIFDLDNTLIDTAGAGRTAIQKVCELLKSTHVQESHIRDICERFLRKLLQESFDPSEGKTIDDVRIQHWCEALQETPGTDPDPALASRCYYTWKNTRSQALSLSSEVRALLEELQKNYKLLLLTNGDTQTQREKIEAVRCEGLFSLVVVGGDRPEQKPARSIFTHCFESAGVRPQDCIMVGDSLTTDIQGGINAGVRATVWINAGSKSLPQDSVTPDYTLPTVLHLNEVLAQLA	soluble
MDTISDVQIHWRKKDYLSMSLLDDFGIAETTVKEHSVNDQIIVTLSADHRVRMIIRYEMDESHIPMIKNLVIRAFFIGSQ	soluble
MGSDKIHHHHHHMNTDLTLVIMAAGLGSRFGGDKQLASLGPSGEPMLVLSILSAIRSGFQRAVLVIRPELEAELTGILTQFLPANFEYHFCYQSLSDLPQDAKLADLSHRLKPWGTAHALWCARDWVKGPMAVINADDFYGDSAFASLAKGLTARPNDWMMVAYPIELTLSEHGGVNRGLCQVAQGQLRSVAEWLNIQAQDDGFVGEGPNGLAKLPLQSLVSMTCWGFSPSIFNVIKQQLTAFIEQQGQLPKSECYLPAVVQAAIEQGVPVYVDVASEPWLGVTYPQDTVWVKQKLMELLGDKTH	not soluble
MIHCDPFSINCFWENVIKFLQYDHSMFKIAITSVPARVDVSDLDRSLAYFLSDIGYIPKINPSTDMNSIKNSVYFRLFKECFLMNGERFWTPEELMSYLGTSRSTLYRHLNKLKYMDLLEEVKDGKIKKYRIRSGDILKAWSWVEINVKMAMDNYRSNVEHIVDLIRSNSNSNLRPLEHHHHHH	not soluble
MAHHHHHHMPLIVPTPPAHPAQSPNQANGELLGRLMKLYRALCVRHDELGQEVILNDILAFLTRTHQHDMAESVIATCEISLPHRSNNQAARYFYYVGLTRALRLEYVDANQCLQQALRKAPERAFGFRVAATKLALVVQLLLGEIPPRSDFLQKDMRESLSPYLQLASCVRFGQLSRFMSILQQHKNIFEHDRTYSLILRVRQHVIKTGLRRICHAYSRISIPDICFKLSMENPADAEYIIAKAIRDGVIDAVIDHEKGHLISSDTVDVYSTSEPLLALQRRIQFLNVTHNDAKRSMRYTAADPELEEERRKVDREEMDSALRAALEDEELGGTDFEDGLP	not soluble
MKPKFETVELLSPTGEVVELKVVKRGLAQARPEPVDRNKPAWIKAPLPTGPRYQALKAMVRELRLHTVCQEALCPNIGECWTHGTLTVMILGDICTRACKFCAVHTGNPKGLVDPEEPRRVAEAIARMGVRYVVLTSVDRDDLPDGGASHFAATIRAIKERAPGVLVEALTPDFQGDLKAVETVLAANPEVYAQNLETVRRLTPKVRDPRAGYEQTLKVLAHAKKVRPDILTKSSLMLGLGETEEEILEAMRDLRAAGVDILTLGQYLRPTPAHLPVARYVPPEDFKRYEAWGYELGFREVFAGPLVRSSYRADRVFLEATQR	not soluble
MMSTPALRPYLPEDAAVTAAIFVASIEQLTADDYSEEQQEAWASAADDEAKFAARLSGQLTLIATLQGVPVGFASLKGPDHIDMLYVHPDYVGRDVGTTLIDALEKLAGARGALILTVDASDNAAEFFAKRGYVAKQRNTVSINGEWLANTTMTKSLADSAAPGASS	soluble
MRYLPIFVFLGSFGYTETTLTKELIKDAAEKCCTRNRQECCIEIMKFGTPIRCGYDRDPKLPGYVYKCLQNVLFAKEPKKKINLDDSVCCSVFGNDQNDSGRRCENRCKNLMTSPSIDAATRLDSIKSCSLLDNVLYKCFEKCRSLRKDGIKIEVLQFEEYCNATFIQKRTFRGV	not soluble
APQGINQFALLLNKQDTLTEFDTLVPGRFQAMRDGTRVTYTEELSKDRGELAGIFISQKDLNSSNQERGISILVAEKGTQNIQADGSRYLILHNGYRYDGNPGQANYRAIQYDTYGVMLPKPEASSEVSERDAVPTADLFGSDNPRYQAELQWR	not soluble
MGGMDTGVTSPRVLVVDDDSDVLASLERGLRLSGFEVATAVDGAEALRSATENRPDAIVLDINMPVLDGVSVVTALRAMDNDVPVCVLSARSSVDDRVAGLEAGADDYLVKPFVLAELVARVKALLRRRGSTATSSSETITVGPLEVDIPGRRARVNGVDVDLTKREFDLLAVLAEHKTAVLSRAQLLELVWGYDFAADTNVVDVFIGYLRRKLEAGGGPRLLHTVRGVGFVLRMQ	soluble
MGSDKIHHHHHHMEKEIPEMFASNYQDWQPIYNWDTCKAGRKEYGKFLCSFLTSSKDDLVVNLNGSWGTGKTELLRRLYVELAERQHPVVYINAWESDFCDDALSVISSEFLNQLEVAFGHNGDPKWLSKFNNLKQKLGKALKFGSLGATMNGEPNAATLLGATSAAVNELPDLASAAVSDNNIRLIEKISSNHANRVQAMKEVREQISALADTMQMVCEAELPIVVLVDELDRCRPTYAIEMLEVIKHFFEARGCVFLVATDTVALEHSIKAVYGASFESEKYLRRFFDRRIALPPLSITQYLKAKALDFTRYQTDQLRLFPFTAINAQLIKIFALLFENAQMSLRDVEQSLQKCVASLEYLQSLGTRPQIVNVIVLMMGSLSSNYRPNRFRIDLQIKYFPMELV	not soluble
MGGSVAAQDEFYRSGWALNMKELKLLQTIGKGEFGDVMLGDYRGNKVAVKCIKNDATAQAFLAEASVMTQLRHSNLVQLLGVIVEEKGGLYIVTEYMAKGSLVDYLRSRGRSVLGGDCLLKFSLDVCEAMEYLEGNNFVHRDLAARNVLVSEDNVAKVSDFGLTKEASSTQDTGKLPVKWTAPEALREKKFSTKSDVWSFGILLWEIYSFGRVPYPRIPLKDVVPRVEKGYKMDAPDGCPPAVYEVMKNCWHLDAAMRPSFLQLREQLEHIKTHELHL	soluble
GPGSMTDDSSGLQSELSHALEGEGNLSVDAMLSQSLVKADLQTPSARILLKKIERPPGRFDLLTNSLVYSWQTTAAQARKVTGPMREWASELKYRTGVHLEVEPTNPTRLGVPEEEGGYAAADDVELTVYLFGSERGIFNCRQLMETALDQNPAYVRLAVFRRRPGKGVSTSTAAVPRPQEDVEWLLLRRINRDLRPPDIPPISLKTPGKWTLLYEQYKEAAIRTLWEETGITVEAGNVYPTAVLCQDNPIYYWRVPVHYFLAEVPYDVQVLGPQVGLNTYMHHWDSSLLRQSPDPIDRAWAQLADPETGCAWMKQPMIDELQRPLRGENYMATRYTPPPYSQLNHALGLAVPAEAAGEASAADSALSAATTAEGGEAQDDVKEDDAAAPSADADASSSNDKPSS	soluble
MTQLNQRRRGNRLENAIYDTTYTLLSQYGLDQVTFSRVATAAATSRSVLYRYWDSTFDLIFHTIIHQIQKTPIALTTTPLDTGSLRTDLILLAQRFIQQTSTGPFRYFRLLFATALNAQNQRDLTQLVTQIDHANLTLIEPLLTNAQNHGELQIWPNQAAQLVLFQQLRYCDIINQPMNTDQQLTNLIDQVVLPALRASGVANRHFHH	not soluble
MGSDKIHHHHHHMIDLKRNSKKIPIEATGLRSRKSSLYEPNQKEDFKISRGRFSNFLTCQRCFYLDRVRGLDPPGTPGWTLNETTDLLLKKEFDYCRQKQIPHRIFASNGLSHVVPFDHPEIDNWRNSLNRGLMHRYKDTGIILTGGVDDIWQDTITEQLIIVDYKSQAKNGRVDKKDYLDDPFHEAYKIQMDFYAYLLSGMGFSVHPTSYFLVCNAKRDEDEFNKTMRFDEYLVPYKWNNDWIESRLDEMVALMNQLEVPESNHSCKNCAYADQYSKIIFSGNTSQKEITQGTLPLF	not soluble
MRILVNLILFSLIPLAFSNENSSSYLIARPLIFETQLKNINDNVNLHCTSWRFAAETNNLAPWKTIPAECADYVKDYLMGEGYVVDVERVSEEAKVYASSFESNGDGKDIWIFDIDETLLSNLPYYMEHGCGLEVFDHSKFDMWVEKGIAPAIAPSLKLYQKVIHLGYKVILLTGRRENHRVITVENLRNAGFHNWDKLILRSLDDRNKTATMYKSEKREEMVKEGYRIRGNSGDQWSDLLGSAMSERSFKLPNPMYYIP	soluble
